Literature values as cited in US10421954B2, “Hybrid polymers, pharmaceutical compositions and methods of synthesizing the same” (New York University, priority 2013, dated 2019).

Details: literature value (ref. 25) for marketed PTH (1-34) (Forteo)

CC[C@H](C)[C@H](NC(=O)[C@H](CCC(=O)O)NC(=O)[C@H](CO)NC(=O)[C@@H](NC(=O)[C@@H](N)CO)C(C)C)C(=O)N[C@@H](CCC(N)=O)C(=O)N[C@@H](CC(C)C)C(=O)N[C@@H](CCSC)C(=O)N[C@@H](Cc1cnc[nH]1)C(=O)N[C@@H](CC(N)=O)C(=O)N[C@@H](CC(C)C)C(=O)NCC(=O)N[C@@H](CCCCN)C(=O)N[C@@H](Cc1cnc[nH]1)C(=O)N[C@@H](CC(C)C)C(=O)N[C@@H](CC(N)=O)C(=O)N[C@@H](CO)C(=O)N[C@@H](CCSC)C(=O)N[C@@H](CCC(=O)O)C(=O)N[C@@H](CCCN=C(N)N)C(=O)N[C@H](C(=O)N[C@@H](CCC(=O)O)C(=O)N[C@@H](Cc1c[nH]c2ccccc12)C(=O)N[C@@H](CC(C)C)C(=O)N[C@@H](CCCN=C(N)N)C(=O)N[C@@H](CCCCN)C(=O)N[C@@H](CCCCN)C(=O)N[C@@H](CC(C)C)C(=O)N[C@@H](CCC(N)=O)C(=O)N[C@@H](CC(=O)O)C(=O)N[C@H](C(=O)N[C@@H](Cc1cnc[nH]1)C(=O)N[C@@H](CC(N)=O)C(=O)N[C@@H](Cc1ccccc1)C(=O)O)C(C)C)C(C)C [PTH (1-34), parathyroid hormone 1-34]
half-life in serum: ~5 min
